Data on 1 molecule can be found in paper PMC9713717.

This assay concerns the target T1, human NKCC1 (sodium-potassium-chloride transporter NKCC1, SLC12A2) (human), P55011.
T1 chain: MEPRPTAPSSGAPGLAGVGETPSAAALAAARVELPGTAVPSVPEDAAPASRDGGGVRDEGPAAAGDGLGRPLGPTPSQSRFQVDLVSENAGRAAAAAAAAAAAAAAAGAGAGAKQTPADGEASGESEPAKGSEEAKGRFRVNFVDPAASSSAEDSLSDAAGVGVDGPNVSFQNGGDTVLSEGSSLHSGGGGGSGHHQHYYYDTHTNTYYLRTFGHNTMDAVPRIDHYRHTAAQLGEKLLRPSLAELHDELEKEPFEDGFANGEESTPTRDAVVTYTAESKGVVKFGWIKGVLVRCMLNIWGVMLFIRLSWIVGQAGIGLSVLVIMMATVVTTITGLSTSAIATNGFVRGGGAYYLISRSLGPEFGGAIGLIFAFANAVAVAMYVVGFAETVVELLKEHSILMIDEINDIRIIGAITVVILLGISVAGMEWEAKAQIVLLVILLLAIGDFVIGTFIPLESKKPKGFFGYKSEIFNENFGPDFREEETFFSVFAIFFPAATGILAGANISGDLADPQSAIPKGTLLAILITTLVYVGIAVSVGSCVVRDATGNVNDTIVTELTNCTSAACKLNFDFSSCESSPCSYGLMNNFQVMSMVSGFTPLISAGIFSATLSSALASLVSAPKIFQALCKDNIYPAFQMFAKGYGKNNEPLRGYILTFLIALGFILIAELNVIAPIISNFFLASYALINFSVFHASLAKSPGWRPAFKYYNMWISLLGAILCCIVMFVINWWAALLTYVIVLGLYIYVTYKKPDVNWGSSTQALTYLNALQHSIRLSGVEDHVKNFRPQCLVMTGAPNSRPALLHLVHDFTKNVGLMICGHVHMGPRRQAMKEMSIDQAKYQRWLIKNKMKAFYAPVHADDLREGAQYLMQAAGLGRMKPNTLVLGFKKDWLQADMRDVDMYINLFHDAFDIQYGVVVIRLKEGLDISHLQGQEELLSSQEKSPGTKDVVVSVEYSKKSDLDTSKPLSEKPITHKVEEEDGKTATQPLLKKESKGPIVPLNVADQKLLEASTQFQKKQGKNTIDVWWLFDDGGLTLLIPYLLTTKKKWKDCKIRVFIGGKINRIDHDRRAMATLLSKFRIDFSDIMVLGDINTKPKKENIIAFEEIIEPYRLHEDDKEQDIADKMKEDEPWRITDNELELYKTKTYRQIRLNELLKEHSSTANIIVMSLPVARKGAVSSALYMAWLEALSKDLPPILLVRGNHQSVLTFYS
The experiment in a line: cryo-EM structure. The note with it: remark: other sources report otherwise.

B1: human NKCC1 (sodium-potassium-chloride transporter NKCC1, SLC12A2), P55011 1-1212 (natural protein)
chain: T1 chain
B1: the stoichiometry N – broadly, a count of units in the complex or per binding partner – was found to be 2.
